Tests used:
[1] = target: Rhesus CCR5 (Rhesus Macaque); assay: cell-based or functional assay
human CCR5 (human) = human CCR5 (human) (UniProt P51681); assay: cell-based or functional assay

Row | Substance | % Inhibition, Rhesus PBMC (#810) x 12E1/SIV239, inhibitor at 20 µg/ml [1] [%] | No. of Syncytia, Rhesus PBMC (#810) x 12E1/SIV239, inhibitor at 20 µg/ml [1] [syncytia] | % Inhibition, PM1 x 12E1/BaL, inhibitor at 20 µg/ml (human CCR5 (human)) [%] | CCR5-tropic virus neutralization (percent inhibition of p24) at 50 µg/ml (human CCR5 (human)) [%] | IC50 of PBMC infection by BaL, JR-CSF and 92US657 (human CCR5 (human)) [µg/mL] | No. of Syncytia, PM1 x 12E1/BaL, inhibitor at 20 µg/ml (human CCR5 (human)) [syncytia] | % Inhibition, Rhesus PBMC (#810) x 12E1/SIV239, inhibitor at 25 µg/ml [1] [%] | No. of Syncytia, Rhesus PBMC (#810) x 12E1/SIV239, inhibitor at 25 µg/ml [1] [syncytia] | % Inhibition, PM1 x 12E1/BaL, inhibitor at 25 µg/ml (human CCR5 (human)) [%] | No. of Syncytia, PM1 x 12E1/BaL, inhibitor at 25 µg/ml (human CCR5 (human)) [syncytia]
1 | monoclonal antibody (mAb) 2D7 | 4 | 258 | 99 | 82 to 93 | 2 to 4 | 5 | – | – | – | –
2 | pre-immune rabbit IgG (antibody) | – | – | – | – | – | – | 0 | 285 | 0 | 487
